Entries after “also recorded” stand apart in the source; their conditions may differ.
Tests used:
[1] = system: PEO1 human ovarian cancer cells; assay: Cell penetration, immunostaining of fixed cells after one hour treatment; format: cell-based; settings: washed, alkaline phosphatase-conjugated anti-mouse antibody
Procedure: The ability of 4H2 to penetrate into live cells was tested. PEO1 human ovarian cancer cells were treated with control media or media containing 4H2 or 3E10 (as a positive control) for one hour, and then cells were washed, fixed, and immunostained with an alkaline phosphatase-conjugated anti-mouse antibody.

[2] = system: live A549 human lung cancer cells; assay: Live cell penetration of FITC-labeled 4H2, fluorescence microscopy; format: cell-based; settings: FITC-labeled 4H2 4 mg/mL, one hour
Procedure: (§1) To confirm that 4H2 penetrates live cells and exclude the observation as a fixation artifact, FITC-labeled 4H2 was applied to live Cal12T and A549 human lung cancer cells at 4 mg/mL for one hour. Cells were also treated with Hoechst and MitoTracker stains to allow detection of nuclei and mitochondria, respectively. Cells were then washed and visualized under a fluorescence microscope.

[3] = system: live Cal12T human lung cancer cells; assay: as above; format: cell-based; settings: FITC-labeled 4H2 4 mg/mL, one hour
Procedure: as §1

Cal12T cells = assay: Cell-penetration and co-localization immunofluorescence assay; format: cell-based, human
Procedure: Cal12T cells were grown on glass coverslips and treated with control media or media containing 0.5 mg/mL 4H2 for one hour. […] For co-localization studies, the fixed cells were also probed overnight with separate rabbit primary antibodies to detect endosomes (C45B10 anti-EEA1 antibody, Cell Signaling), lysosomes (D2D11 anti-LAMP1 antibody, Cell Signaling), endoplasmic reticulum (C81H6 anti-PDI antibody, Cell Signaling), golgi apparatus (D2B6N anti-RCAS1 antibody, Cell Signaling), mitochondria (3E11 anti-COX IV and D3932 anti-AIF antibodies, Cell Signaling), or K-Ras (anti-K-Ras antibody) extensively washed with PBS, and then incubated with an Alexa555-conjugated goat anti-rabbit IgG antibody (Cell Signaling). Cells were also treated with DAPI, and imaged using an EVOS fl digital fluorescence microscope (Advanced Microscopy Group, Bothell, WA) under light, DAPI, GFP, or RFP filters. Fluorescence images were merged using ImageJ (NIH, Bethesda, MD).
After confirming that 4H2 penetrates live cells, subcellular localization was investigated through immunofluorescence co-localization studies. Cal12T cells were treated with 4H2 (0.5 mg/mL) for one hour and were then washed, fixed, and immunostained with an Alexa488-conjugated anti-mouse IgG antibody. […] Cells treated with 4H2 were also co-immunostained with rabbit primary antibodies against markers of early endosomes (EEA1), lysosomes (LAMP1), Golgi (RASC1), ER (PDI), and mitochondria (COX IV), followed by detection with an Alexa555-conjugated anti-rabbit IgG antibody. Use of the Alexa488 and Alexa555-conjugated antibodies to detect 4H2 and organelle markers allowed separate visualization of 4H2 and organelle locations under GFP and RFP filters, respectively. Merging of the GFP and RFP images should yield a yellow signal in areas of co-localization. DAPI co-stain allowed visualization of nuclei in blue. Representative merged images showing DAPI, GFP, and RFP filters for each co-stain were analyzed.
To explore this, Cal12T cells treated with 4H2 were co-stained for 4H2 and K-Ras using the technique described above.

[4] = system: Single-stranded M13mp18 DNA; assay: Nucleolytic assay; format: biochemical; settings: 0.5 mg/mL antibody, 37° C., 10 minutes
Procedure: Single-stranded M13mp18 DNA (50 ng; New England Biolabs, Ipswich, MA) was incubated at 37° C. for 10 minutes in control binding buffer (50 mM Tris-HCl, 100 mM NaCl, 10 mM MgCl2) or binding buffer containing 0.5 mg/mL 4H2, 3E10, or 5C6.
An intriguing feature of some anti-DNA antibodies is an association with catalytic activities. […] To determine if 4H2 has any effect on DNA integrity it was incubated with single-stranded M13mp18 plasmid DNA for 10 minutes and then evaluated the integrity of the DNA on an agarose gel. 3E10 and 5C6 were also included as negative and positive controls, respectively.

[5] = GTPase assay, colorimetric Pi release from GTP; format: biochemical; settings: 4H2 0-1 mg/mL, 30 minutes, absorbance at 630 nm
Procedure: Pi release from GTP after incubation with 4H2 (0-1 mg/mL) for 30 min was measured by colorimetric assay using the Innova GTPase activity kit.
The effect of 4H2 on Pi release from GTP was tested using a colorimetric assay. 4H2 (0-1 mg/mL) was incubated with GTP for 30 minutes, and Pi release was measured using the Innova GTPase activity kit. Concentration of Pi released was determined from absorbance at 630 nm and comparison to a free Pi standard curve. 4H2 in buffer alone was used as a blank.

[6] = system: Akt phosphorylation in Cal12T cells; assay: Western blot of phospho-Akt; format: cell-based, human; settings: 1 mg/mL
Procedure: (§2) Cell lysates were prepared and run on 4-15% SDS-PAGE gradient gels, followed by transfer to membranes. Membranes were then blocked and incubated with the indicated primary antibodies, followed by HRP-conjugated secondary antibody and detection of bands by chemiluminescence. Band intensity measurements were taken using ImageJ.
(§3) To probe the effect of 4H2 on signaling its effect on the phosphorylation of Akt was tested in cells.

[7] = system: Akt phosphorylation in SW48 human colon cancer cells; assay: Western blot of phospho-Akt; format: cell-based; settings: 1 mg/mL, 4 hours
Procedure: FIG. 1A is a line graph showing the effect of 4H2 on release Pi from GTP as measured by colorimetric assay (N=2). FIG. 1B is a bar graph showing the relative amounts of phospho-Akt in Cal12T cells treated with 1 mg/mL 4H2 at 4 and 24 hours relative to control (*p<0.05. N=4). FIG. 1C is a bar graph showing the relative amounts of phospho-Akt in SW48 human colon cancer cells treated with 1 mg/mL 4H2 at 4 hours relative to control (*p<0.05. N=2).
as §2, §3

[8] = system: G12C K-Ras-mutant Cal12T lung cancer cells; assay: Clonogenic survival by colony formation assay; format: cell-based, human
Procedure: (§4) FIG. 2A is a line graph showing the effects of 4H2 on a matched pair of isogenic parental (WT) and G12C K-Ras-mutant (KRAS) Cal12T lung cancer cells. Clonogenic survival was measured by colony formation assay (*p<0.02. N=6). FIGS. 2B and 2C are line graphs showing H441 (2B) and H358 K-Ras (2C) addicted human lung cancer cells (G12V and G12C mutations, respectively) treated with control media or media containing 4H2. Surviving fractions were determined by colony formation assay (*p<0.01. N>3). FIG. 2D is a line graph showing the effect of 4H2 on tumor volume (mm^3) of H358 tumor xenografts generated in the flanks of nude mice by subcutaneous injection of tumor cells. Once tumors reached ˜100 mm3 volume mice were treated with direct tumor injection of 50 uL of control PBS or PBS containing 0.5 mg/mL 4H2 twice a week for three weeks. Tumor volumes were monitored, and growth curves are shown. […] N=3 mice per group.
(§5) Aberrations in cell signaling caused by activating mutations in small GTPases such as the Ras family of proteins are found in ˜30% of malignancies, and K-Ras is one of the most frequently mutated small GTPases (Adjei, J Natl Cancer Inst, 93:1062-1074 (2001), Gysin, et al., Genes Cancer, 2:359-372 (2011)). Development of therapies that are preferentially toxic to K-Ras mutant cancer cells is a major goal in oncology. […]

[9] = system: parental (WT) Cal12T lung cancer cells; assay: Clonogenic survival by colony formation assay; format: cell-based, human; settings: WT K-Ras
Procedure: as §4, §5

[10] = system: H358 K-Ras addicted human lung cancer cells; assay: Surviving fraction by colony formation assay; format: cell-based; settings: K-Ras G12C
Procedure: as §4
(§6) Lastly, to confirm that 4H2 is toxic to K-Ras addicted cancer cells in vivo, H358 subcutaneous xenografts were generated in nude mice and treated by direct injection with control buffer or 25 ug of 4H2 twice a week for three weeks.

[11] = system: H441 K-Ras addicted human lung cancer cells; assay: Surviving fraction by colony formation assay; format: cell-based; settings: K-Ras G12V
Procedure: as §4, §6

[12] = system: H358 subcutaneous xenografts; assay: Tumor growth suppression assay; format: in vivo, nude mice; settings: intratumoral 25 ug (50 uL of 0.5 mg/mL) twice a week for three weeks; day 15 after initiation of treatment, p<0.01
Procedure: as §4
Subcutaneous xenografts were generated in nude mice by injection of 1×10^6 H358 cancer cells. Treatment with direct intratumoral injection of 50 uL of control PBS (N=3) or 4H2 in PBS (0.5 mg/mL) (N=3) twice a week for three weeks was initiated once tumors reached ˜100 mm^3. Tumor volumes were tracked by caliper measurements. […]

cAMP in cultured cells = settings: previous findings; cited from earlier work
[13] = preliminary findings, data not published; cited from earlier work
[14] = system: Htori-3-LLU thyroid epithelial cells; settings: cited from earlier work
ERK and Akt = settings: cited from earlier work
DLD1 colon cancer cells = assay: 4H2 scFv cell penetration, protein L immunostaining; format: cell-based; settings: 6 μM, one hour

B1: 4H2: monoclonal anti-guanosine antibody produced by a hybridoma from MRL/lpr; VL SEQ ID NO:1, VH SEQ ID NO:5 (antibody, listed as Mus musculus, V domains shown)
VH: EVQLQQSGPELVKPGASVKMSCKASGYTFTDYYMNWVKQSHGKSLEWIGRVNPSNGGISYNQKFKGKATLTVDKSLSTAYMQLNSLTSEDSAVYYCARGPYTMYYWGQGTSVTVSS
VL: DIVLTQSPATLSVTPGDRVSLSCRASQSISNYLHWYQQKSHESPRLLIKYASQSISGIPSRFSGSGSGTDFTLSIISVETEDFGMYFCQQSNSWPLTFGAGTKLELK
location of antibody staining in cells [1]: exclusively cytoplasmic staining
4H2 signal in nuclei (overlay with Hoechst) [2]: absence of 4H2 signal in the nuclei
FITC fluorescence correlating to 4H2, location [2]: detected in the cytoplasm
co-localization with mitochondria (MitoTracker) [2]: a distinct co-localization with mitochondria could not be confirmed
4H2 signal in nuclei (overlay with Hoechst) [3]: absence of 4H2 signal in the nuclei
FITC fluorescence correlating to 4H2, location [3]: detected in the cytoplasm
co-localization with mitochondria (MitoTracker) [3]: a distinct co-localization with mitochondria could not be confirmed
co-localization with endosomes or lysosomes (Cal12T cells; 0.5 mg/mL, one hour): did not colocalize with endosomes or lysosomes
Alexa488 signal (4H2) location (Cal12T cells; 0.5 mg/mL, one hour, fixed cells): detected in the cytoplasm
localization to organelles: early endosomes (EEA1), lysosomes (LAMP1), Golgi (RASC1), ER (PDI), mitochondria (COX IV) (Cal12T cells; 0.5 mg/mL, one hour, fixed cells, merged GFP/RFP images): did not appear to directly localize to any of the organelles tested
co-localization with K-Ras (Cal12T cells; co-stain for 4H2 and K-Ras, merged fluorescence): at least some degree of co-localization
effect on DNA integrity (agarose gel) [4]: neither 3E10 nor 4H2 had any discernible effects on the DNA integrity
Pi release from GTP [5]: dose-dependent release of Pi from GTP
amount of phospho-Akt relative to control ([6]; 24 hours): reduced the amount of phospho-Akt
amount of phospho-Akt relative to control ([6]; four hours): reduced the amount of phospho-Akt
amount of phospho-Akt relative to control [7]: reduce amounts of p-Akt
clonogenic survival, sensitivity to 4H2 [8]: highly sensitive to 4H2
clonogenic survival, sensitivity to 4H2 [9]: more resistant to its effects
surviving fraction, sensitivity to 4H2 [10]: sensitive to 4H2
surviving fraction, sensitivity to 4H2 [11]: sensitive to 4H2
tumor growth / tumor volume [12]: statistically significant difference in tumor volumes; also recorded: Detectable suppression of tumor growth
cAMP in cells (cAMP in cultured cells): reduces cAMP in cells
cleavage of GTP [13]: catalyzed cleavage of the gamma-phosphate bond in radiolabeled GTP
association with mitochondria [14]: appeared to associate with mitochondria
phosphorylation of ERK and Akt (ERK and Akt): reduce phosphorylation of ERK and Akt

B2: 4H2 scFv: single chain variable fragment of 4H2, SEQ ID NO:22: VL, linker, VH, His6 tag (protein)
scFv: DIVLTQSPATLSVTPGDRVSLSCRASQSISNYLHWYQQKSHESPRLLIKYASQSISGIPSRFSGSGSGTDFTLSIISVETEDFGMYFCQQSNSWPLTFGAGTKLELKADAAPGGGGSGGGGSGGGGSEVQLQQSGPELVKPGASVKMSCKASGYTFTDYYMNWVKQSHGKSLEWIGRVNPSNGGISYNQKFKGKATLTVDKSLSTAYMQLNSLTSEDSAVYYCARGPYTMYYWGQGTSVTVSSHHHHHH
cell penetration (DLD1 colon cancer cells): cell-penetrating activity

From patent publication US12486318B2, “Anti-guanosine antibody as a molecular delivery vehicle” (Yale University, priority 2016, dated 2025)
